# Measured values: the RNAGym collection of RNA variant scans (doi:10.7554/elife.90254)
# B1: OR4K15 (parent)
# chain: GUUAACGGUCAUAGGCCAUGGAAACUAGGAGCACCAUUUCGCUGCCAGUGAAGAAAUGAACAAAGAAAAUCUGGGCCAGGCAGGCAUCAAAAGAAAUAGUCUUGCGCUCAACCAGAAAGUCUGUAAUCAUUUUAAGGGUA
# Variants of: B1
# Test: self-cleavage, relative activity (ratio to wild type); higher = more cleavage; in vitro, sequencing; the parent is a self-cleaving ribozyme
row,Variant,self-cleavage
1,A30G G115U,0.21
2,A30G A129G,1.02
3,A30G A36G,1.44
4,A30G A36U,1.32
5,A30U A66G,1.68
6,A30U A66U,0.65
7,A30G U127C,0.97
8,A30G A135G,1.51
9,G28U A30G,1.48
10,A30G U103C,1.09
11,A30G A111U,0.05
12,A30U A95G,0.89
13,A30G A63G,1.57
14,A30G A114G,0.23
15,A30G A114U,0.05
16,G28A A140G,2
17,A30C U130C,1.21
18,G28U A89U,2.26
19,A27U U120C,0.85
20,G28U A52G,1.37
21,G28A U120C,1.28
22,A30G A52U,1.62
23,G28A U70A,1.02
24,G29U C88U,2.55

row,Variant,self-cleavage
1,A30G U120C,1.04
2,A30G U120A,1.3
3,A30U A90G,1.31
4,G29C U37C,1.25
5,A27U U132C,1.39
6,A30G U70C,0.75
7,A30U A125G,0.5
8,A30G A59G,1.5
9,A30G U43C,1.39
10,A30G U43A,1.01
11,A30U A82U,0.23
12,A30C U132C,1.12
13,A30G A82C,0.07
14,A30G C113U,0.07
15,G29C U100C,2.39
16,G29U A78G,0.24
17,G29U A78U,0.35
18,G29A C34U,1.67
19,G29A U108C,0.03
20,G29A A92U,1.86
21,G29A A92G,1.16
22,A30G C35A,0.7
23,A30G A90U,1.68
24,A30G A68U,1.28

row,Variant,self-cleavage
1,A30U A89U,1.55
2,A27U U57C,1.25
3,A30G A54U,1.33
4,A30U A91U,0.83
5,G29A U122C,1.08
6,G28U A118U,0.68
7,G28U A118G,0.84
8,A30U G79U,0.09
9,A30G C40U,0.89
10,A30U A134G,1.06
11,G29A A47G,0.87
12,G29A A134G,0.51
13,G29A A78U,0.14
14,G29A A78C,0.33
15,A30U A68G,1.62
16,G29C,1.78
17,G29A,1.82
18,G29U,1.83
19,A30G A110U,1.1
20,A30G A60G,0.96
21,A27U U139C,1.56
22,A27U U70A,1.68
23,A30G A69U,1.18
24,G29A A33G,0.88

row,Variant,self-cleavage
1,A30U C101A,0.25
2,A30G U102A,0.78
3,A30G U102C,1.21
4,A30G A67C,1.15
5,G29A A86G,1.65
6,A30U A92G,0.91
7,A30G A95G,0.44
8,A30G A62G,1.07
9,A30G A62U,1.29
10,A30G G104A,0.08
11,G29A A66G,1.59
12,A30U G119A,2.38
13,A30U A47G,0.97
14,A30G U108C,0.02
15,A30G A98G,0.76
16,A30U A62G,1.16
17,G28A A91G,1.19
18,G28A U102C,0.81
19,A30U A78U,0.2
20,A30U C105U,0.4
21,A30G A118U,0.62
22,A30G A118G,1.2
23,A30G A51U,1.46
24,G29A C40A,1.82

row,Variant,self-cleavage
1,A30C A55G,1.44
2,G29A U130C,1.7
3,A30G A140G,1.34
4,G28A A52U,1.15
5,A30C A89G,1.34
6,A30C A36G,2.26
7,A27U U122C,1.42
8,A30G A33U,1.18
9,A30G G74C,0.34
10,A30G U97C,1.23
11,G28A A64G,1.4
12,A30G A134G,0.98
13,A30C G75C,0.12
14,A30G U38G,1.4
15,A30G A117G,1.48
16,A30G U131C,0.95
17,G28A U108A,0.01
18,G29A A129G,1.59
19,G29U A33G,1.58
20,A30G C85U,0.69
21,A30G U122C,0.84
22,A30G G31C,2
23,A30U A59U,1.6
24,A30G C32U,0.93

row,Variant,self-cleavage
1,A30G C61U,0.84
2,G28U A62G,1.64
3,G29U A118G,0.78
4,A30G U57G,1.24
5,A30G U57A,1.15
6,A30U A96G,0.89
7,A30U G73U,0.17
8,A30G U49C,1.07
9,A30G A55U,1.44
10,G29U A111G,0.05
11,A30G A64U,0.3
12,A30G A64C,1.38
13,G28A A55G,1.7
14,A30U A135U,1.23
15,A30U A111G,0.02
16,G28U A135C,2.26
17,A30G G119A,2.01
18,A30G G53C,1.95
19,G29A A67G,1.29
20,A30G A125G,0.87
21,A30C A140G,1.69
22,A30G A56C,0.43
23,G28C U130C,0.64
24,A30G A47G,0.71

row,Variant,self-cleavage
1,A30G A47C,1.21
2,A30G U124C,0.74
3,A30G U124A,0.78
4,A27U U130C,1.07
5,A30G C128U,1.78
6,A30G A92U,0.71
7,A30G A92G,1.05
8,A30G U87A,0.88
9,G28U A69G,1.57
10,G28A A114U,0.18
11,A30U A126G,1.03
12,A27U U97C,1.75
13,A30U A36G,1.71
14,G28A A33G,0.69
15,G29A A96U,1.27
16,A30G C121A,2.31
17,G29U A62G,1.65
18,A30C A64U,0.92
19,A30G U37C,0.98
20,A30G U37A,1.7
21,G28A C88U,2.33
22,G28A U124C,0.6
23,A30G U132G,0.69
